Assay results: patent publication US20220098591, “STEM-LOOP COMPOSITIONS AND METHODS FOR INHIBITING VASCULAR ENDOTHELIAL GROWTN FACTOR” (DRIVE THERAPEUTICS LLC, published 2022)

B1: Aptamer 234 (ssRNA)
RNA: CGACCCGCGCGGAGGGGUUUCAUUAUCCCGUUUGUCG
modifications: G 2'-F except 2'-OMe-G as X in CXAC-Sp3-CCGCGCGGAGGGXUUUCAUUAUCCCGUUUXUCX; A,C,U 2'-OMe; Sp3 joins the two parts; 5' C6NH2; 3' idT

Molecular target: T1, VEGF-A121 (Homo sapiens, UniProt P15692 SEQ:1-121)
Assay: competition; TR-FRET
Settings: tags: glycan-biotinylated for SPR/FRET/AlphaLISA; Acro BioSystems, Biolegend; chain copies: 2 (stated)
Description: Briefly, for competition TR-FRET, 2-fold dilutions of thermally equilibrated aptamers were made in TR-FRET Buffer (50 mM MOPS, pH 7.4, 125 mM NaCl, 5 mM KCl, 50 μM CHAPS, 0.1 mg/mL BSA, 1 mM CaCl₂, and 1 mM MgCl₂). 5 μL of aptamer or control solution was added to a 15 μL mix of glycan biotinylated […] (5 nM final), ALEXA FLUOR® 647-labeled Aptamer (30 nM final), and Streptavidin-Eu (Perkin Elmer; 2.5 nM final) in a black wall low volume 384 well plate (Greiner). For control, 5 μl of 1000-fold excess of unlabeled parent aptamer or 5 μl TR-FRET buffer alone was added to the mix of ALEXA FLUOR® 647-labeled aptamer, biotin-VEGF-A, and Streptavidin-Eu. The plate was covered with a plate seal and subsequently incubated in the dark for 1 hour at room temperature. The plate was read on a Biotek CYTATION™ 5 plate reader. Samples were excited at 330 nm and fluorescent values were collected at 665 nm. Data analysis was performed by subtracting the background value and plotting as percent inhibition, normalized to baseline in the absence of competitor. The values were fit by [Inhibitor] vs. response-Variable slope (four parameters) using GraphPad Prism Version 7.0 and then normalized to aptamer control to obtain an IC₅₀ relative to parent aptamer. Data is presented as log values of relative IC₅₀.
Activity of each of these variants were tested using a time resolved competition TR-FRET assay, as described in Example 7, in which a labeled parent was competed with increasing concentrations of unlabeled variants for binding to VEGF-A₁₂₁.

**Q.** With AGGCCGCCUCCGCGCGGAGGGGUUCAUUUCCCGUUUGGCGGCUU (ssRNA, all G 2'-F; A,C,U 2'-OMe; 5' C6NH2; 3' idT) [Aptamer 108] as the binder, how does the binding signal read?
**A.** > 100 fold worse IC50 vs Aptamer 26

**Q.** With AGGCCGCCUCCGCGCGGAGGUCUUUCAUUAGACCGUUUGGCGGCUU (ssRNA, all G 2'-F; A,C,U 2'-OMe; 5' C6NH2; 3' idT) [Aptamer 129] as the binder, how does the binding signal read?
**A.** > 100 fold worse IC50 vs Aptamer 26

**Q.** Does AGGCCGCAUCCGCGCGGAGGGGUUUCAUUAUCCCGUUUUGCGGCUU (ssRNA, all G 2'-F; A,C,U 2'-OMe; 5' C6NH2; 3' idT) [Aptamer 122] bind?
**A.** binds

**Q.** Does AGGCCGCCUCAGCGCUGAGGGGUUUCAUUAUCCCGUUUGGCGGCUU (ssRNA, all G 2'-F; A,C,U 2'-OMe; 5' C6NH2; 3' idT) [Aptamer 178] bind?
**A.** binds

**Q.** Which binding signal does the source give for AGGCCGCCUCCACGCGGAGGGGUUUCAUUAUCCCGUUUGGCGGCUU (ssRNA, all G 2'-F; A,C,U 2'-OMe; 5' C6NH2; 3' idT) [Aptamer 149] here?
**A.** > 100 fold worse IC50 vs Aptamer 26

**Q.** Which binding signal does the source give for AGGCCGCCACCGCGCGGAGGGGUUUCAUUAUCCCGUUUGGCGGCUU (ssRNA, all G 2'-F; A,C,U 2'-OMe; 5' C6NH2; 3' idT) [Aptamer 146] here?
**A.** ~3 fold better IC50 vs Aptamer 26

**Q.** AGGCCGCCUCCGCCCGGAGGGGUUUCAUUAUCCCGUUUGGCGGCUU (ssRNA, all G 2'-F; A,C,U 2'-OMe; 5' C6NH2; 3' idT) [Aptamer 156] was tested. Which binding signal did it give?
**A.** > 100 fold worse IC50 vs Aptamer 26

**Q.** AGGCCGCCUCCGCGCGGAGGUGUUUCAUUACACCGUUUGGCGGCUU (ssRNA, all G 2'-F; A,C,U 2'-OMe; 5' C6NH2; 3' idT) [Aptamer 130] was tested. Which binding signal did it give?
**A.** > 100 fold worse IC50 vs Aptamer 26

**Q.** Does AGGCCGCCGCCGCGCGGAGGGGUUUCAUUAUCCCGUUUGGCGGCUU (ssRNA, all G 2'-F; A,C,U 2'-OMe; 5' C6NH2; 3' idT) [Aptamer 148] bind?
**A.** binds

**Q.** Which binding signal does the source give for AGGCCGCCUCCGCUCGGAGGGGUUUCAUUAUCCCGUUUGGCGGCUU (ssRNA, all G 2'-F; A,C,U 2'-OMe; 5' C6NH2; 3' idT) [Aptamer 157] here?
**A.** > 100 fold worse IC50 vs Aptamer 26

**Q.** With AGGCCGCCUCCGCGCGGAGUGGUUUCAUUAUCACGUUUGGCGGCUU (ssRNA, all G 2'-F; A,C,U 2'-OMe; 5' C6NH2; 3' idT) [Aptamer 116] as the binder, how does the binding signal read?
**A.** > 100 fold worse IC50 vs Aptamer 26

**Q.** How did the binding signal turn out when AGGCCGCCUCCCCGCGGAGGGGUUUCAUUAUCCCGUUUGGCGGCUU (ssRNA, all G 2'-F; A,C,U 2'-OMe; 5' C6NH2; 3' idT) [Aptamer 150] was run?
**A.** > 100 fold worse IC50 vs Aptamer 26

**Q.** Does AGGCCGUCUCCGCGCGGAGGGGUUUCAUUAUCCCGUUUGACGGCUU (ssRNA, all G 2'-F; A,C,U 2'-OMe; 5' C6NH2; 3' idT) [Aptamer 126] bind?
**A.** binds

**Q.** How did the binding signal turn out when AGGCCGCCUCCGCGCGGAGGGGUUUCAUUAUCCCAUUUGGCGGCUU (ssRNA, all G 2'-F; A,C,U 2'-OMe; 5' C6NH2; 3' idT) [Aptamer 162] was run?
**A.** > 100 fold worse IC50 vs Aptamer 26

**Q.** For AGGCCGCCUCCGCGCGGAAGGGUUUCAUUAUCCUGUUUGGCGGCUU (ssRNA, all G 2'-F; A,C,U 2'-OMe; 5' C6NH2; 3' idT) [Aptamer 112], which binding signal is on record?
**A.** > 100 fold worse IC50 vs Aptamer 26

**Q.** Which binding signal does the source give for AGGCCGCCUCCGCGCGGAGGGGUUUCAUUAUCCCCUUUGGCGGCUU (ssRNA, all G 2'-F; A,C,U 2'-OMe; 5' C6NH2; 3' idT) [Aptamer 163] here?
**A.** > 100 fold worse IC50 vs Aptamer 26

**Q.** For AGGCCGCCUCCGCGCGGAGGAGUUUCAUUACUCCGUUUGGCGGCUU (ssRNA, all G 2'-F; A,C,U 2'-OMe; 5' C6NH2; 3' idT) [Aptamer 131], which binding signal is on record?
**A.** > 100 fold worse IC50 vs Aptamer 26

**Q.** Which binding signal does the source give for AGGCCGCCUCCGCACGGAGGGGUUUCAUUAUCCCGUUUGGCGGCUU (ssRNA, all G 2'-F; A,C,U 2'-OMe; 5' C6NH2; 3' idT) [Aptamer 155] here?
**A.** > 100 fold worse IC50 vs Aptamer 26

**Q.** How did the binding signal turn out when AGGCCGCCUCCGCGUGGAGGGGUUUCAUUAUCCCGUUUGGCGGCUU (ssRNA, all G 2'-F; A,C,U 2'-OMe; 5' C6NH2; 3' idT) [Aptamer 160] was run?
**A.** > 100 fold worse IC50 vs Aptamer 26

**Q.** How did the binding signal turn out when AGGCCGCCUCCGCGCGGAGCGGUUUCAUUAUCGCGUUUGGCGGCUU (ssRNA, all G 2'-F; A,C,U 2'-OMe; 5' C6NH2; 3' idT) [Aptamer 117] was run?
**A.** > 100 fold worse IC50 vs Aptamer 26

**Q.** Which binding signal does the source give for AGGCCGCCUCCGCGAGGAGGGGUUUCAUUAUCCCGUUUGGCGGCUU (ssRNA, all G 2'-F; A,C,U 2'-OMe; 5' C6NH2; 3' idT) [Aptamer 158] here?
**A.** > 100 fold worse IC50 vs Aptamer 26

**Q.** How did the binding signal turn out when AGGCCGCCUCCGCGGGGAGGGGUUUCAUUAUCCCGUUUGGCGGCUU (ssRNA, all G 2'-F; A,C,U 2'-OMe; 5' C6NH2; 3' idT) [Aptamer 159] was run?
**A.** > 100 fold worse IC50 vs Aptamer 26

**Q.** Does AGGCCGCUUCCGCGCGGAGGGGUUUCAUUAUCCCGUUUAGCGGCUU (ssRNA, all G 2'-F; A,C,U 2'-OMe; 5' C6NH2; 3' idT) [Aptamer 123] bind?
**A.** binds

**Q.** With AGGCCGCCUCCGCGCGGCGGGGUUUCAUUAUCCCGUUUGGCGGCUU (ssRNA, all G 2'-F; A,C,U 2'-OMe; 5' C6NH2; 3' idT) [Aptamer 161] as the binder, how does the binding signal read?
**A.** > 100 fold worse IC50 vs Aptamer 26

**Q.** How did the binding signal turn out when AGGCCGCCUCCGCGCGGAUGGGUUUCAUUAUCCAGUUUGGCGGCUU (ssRNA, all G 2'-F; A,C,U 2'-OMe; 5' C6NH2; 3' idT) [Aptamer 113] was run?
**A.** > 100 fold worse IC50 vs Aptamer 26

**Q.** Does AGGCCGCCUCCGCGCGGAGGGGUUUCAUUAUCCCGCUUGGCGGCUU (ssRNA, all G 2'-F; A,C,U 2'-OMe; 5' C6NH2; 3' idT) [Aptamer 166] bind?
**A.** binds

**Q.** With AGGCCGCCUCCGCGCGGACGGGUUUCAUUAUCCGGUUUGGCGGCUU (ssRNA, all G 2'-F; A,C,U 2'-OMe; 5' C6NH2; 3' idT) [Aptamer 114] as the binder, how does the binding signal read?
**A.** > 100 fold worse IC50 vs Aptamer 26

**Q.** Does AGGCCGACUCCGCGCGGAGGGGUUUCAUUAUCCCGUUUGUCGGCUU (ssRNA, all G 2'-F; A,C,U 2'-OMe; 5' C6NH2; 3' idT) [Aptamer 125] bind?
**A.** binds

**Q.** Which binding signal does the source give for AGGCCGCCUCCGCGCGGAGGGGUUUCAUUAUCCCUUUUGGCGGCUU (ssRNA, all G 2'-F; A,C,U 2'-OMe; 5' C6NH2; 3' idT) [Aptamer 164] here?
**A.** > 100 fold worse IC50 vs Aptamer 26

**Q.** AGGCCGCCUCCGCGCGGAGGCGUUUCAUUACGCCGUUUGGCGGCUU (ssRNA, all G 2'-F; A,C,U 2'-OMe; 5' C6NH2; 3' idT) [Aptamer 132] was tested. Which binding signal did it give?
**A.** > 100 fold worse IC50 vs Aptamer 26

**Q.** With AGGCCGCCUCCGCGCGGAGGGCUUUCAUUAGCCCGUUUGGCGGCUU (ssRNA, all G 2'-F; A,C,U 2'-OMe; 5' C6NH2; 3' idT) [Aptamer 127] as the binder, how does the binding signal read?
**A.** > 100 fold worse IC50 vs Aptamer 26

Molecular target: T1, VEGF-A121
Assay: competition; TR-FRET
Settings: tags: glycan-biotinylated for SPR/FRET/AlphaLISA; Acro BioSystems, Biolegend; chain copies: 2 (stated)
Remark: another data set of the same source
Target sequence in this assay (P15692 other isoform, or with tags, fused parts or gaps): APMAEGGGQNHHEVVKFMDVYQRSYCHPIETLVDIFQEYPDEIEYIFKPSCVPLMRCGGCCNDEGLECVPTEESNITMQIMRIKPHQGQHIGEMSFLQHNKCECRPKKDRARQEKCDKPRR

**Q.** Does AGGCCGAACCGCGCGGAGGGGUUUCAUUAUCCCGUUUUUCGGCUU (ssRNA, all G 2'-F; A,C,U 2'-OMe; Sp3 joins the two parts; 5' C6NH2; 3' idT) [Aptamer 137] bind?
**A.** binds

**Q.** Does AGGCCGACCCGCGCGGAGGGGUUUCAUUACCCCGUUUGUCGGCUU (ssRNA, all G 2'-F; A,C,U 2'-OMe; Sp3 joins the two parts; 5' C6NH2; 3' idT) [Aptamer 187] bind?
**A.** binds

**Q.** Does AGGCCGUCCCGCGCGGAGGGGUUUCAUUAUCCCGUUUGACGGCUU (ssRNA, all G 2'-F; A,C,U 2'-OMe; Sp3 joins the two parts; 5' C6NH2; 3' idT) [Aptamer 142] bind?
**A.** binds

**Q.** Does AGGCCGAUCCGCGCGGAGGGGUUUCAUUAUCCCGUUUAUCGGCUU (ssRNA, all G 2'-F; A,C,U 2'-OMe; Sp3 joins the two parts; 5' C6NH2; 3' idT) [Aptamer 138] bind?
**A.** binds

**Q.** Does AGGCCGUACCGCGCGGAGGGGUUUCAUUAUCCCGUUUUACGGCUU (ssRNA, all G 2'-F; A,C,U 2'-OMe; Sp3 joins the two parts; 5' C6NH2; 3' idT) [Aptamer 139] bind?
**A.** binds

**Q.** Does AGGCCGCUCCGCGCGGAGGGGUUUCAUUAUCCCGUUUAGCGGCUU (ssRNA, all G 2'-F; A,C,U 2'-OMe; Sp3 joins the two parts; 5' C6NH2; 3' idT) [Aptamer 144] bind?
**A.** binds

**Q.** Does AGGCCGCACCGCGCGGAGGGGUUUCAUUAUCCCGUUUUGCGGCUU (ssRNA, all G 2'-F; A,C,U 2'-OMe; Sp3 joins the two parts; 5' C6NH2; 3' idT) [Aptamer 143] bind?
**A.** binds

**Q.** Does B1 bind?
**A.** binds
